Two molecules from US20200317768A1 (published 2020) can be followed below.

The target in experiment [1] is T1, cynomolgus monkey FcγRIIb extracellular domain, C-terminal His-tag (cynomolgus monkey).
T1 construct: also called cyno FcγRIIb; cynoFcγRIIb; not shown: His-tag added to C-terminus
T1 chain: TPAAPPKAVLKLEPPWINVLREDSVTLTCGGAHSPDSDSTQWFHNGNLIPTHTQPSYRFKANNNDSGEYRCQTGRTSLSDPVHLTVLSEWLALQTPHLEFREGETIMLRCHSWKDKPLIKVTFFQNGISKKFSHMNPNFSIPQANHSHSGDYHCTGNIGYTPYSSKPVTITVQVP
Put plainly: SPR (BIACORE), antibody captured, FcγR analyte. How it is done:
(§1) The kinetic analysis of interactions between these antibodies and FcγR was carried out using BIACORE® T200 or BIACORE® 4000 (GE Healthcare). HBS-EP+ (GE Healthcare) was used as the running buffer, and the measurement temperature was set to 25° C. A chip produced by immobilizing Protein A. Protein A/G or mouse anti-human IgG kappa light chain (BD Biosciences) onto a Series S Sensor Chip CM4 or CM5 (GE Healthcare) by the amine-coupling method was used. […] After the measurement, the antibody captured on the chip was washed off by allowing reaction with 10 mM glycine-HCl, pH1.5 and 25 mM NaOH so that the chip was regenerated and used repeatedly. The sensorgrams obtained as measurement results were analyzed by the 1:1 Langmuir binding model using the BIACORE® Evaluation Software to calculate the binding rate constant ka (L/mol/s) and dissociation rate constant kd (l/s), and the dissociation constant KD (mol/L) was calculated from these values. […] Regarding such interactions, KD values were calculated using the following 1:1 binding model described in BIACORE® T100 Software Handbook BR1006-48 Edition AE.

Experiment [2] has as its target T2, cynomolgus monkey FcγRIIa2 extracellular domain, C-terminal His-tag (cynomolgus monkey).
T2 construct: also called cyno FcγRIIa2; cynoFcgRIIa2; not shown: His-tag added to C-terminus
T2 chain: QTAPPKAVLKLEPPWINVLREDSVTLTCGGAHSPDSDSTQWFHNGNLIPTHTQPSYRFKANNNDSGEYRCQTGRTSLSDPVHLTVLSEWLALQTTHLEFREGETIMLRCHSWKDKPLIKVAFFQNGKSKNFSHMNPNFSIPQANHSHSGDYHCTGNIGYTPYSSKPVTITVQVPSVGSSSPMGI
Kind of experiment: SPR (BIACORE), antibody captured, FcγR analyte. The procedure:
as §1
(SPR reads the build-up and loss of mass on a sensor chip optically.)

Experiment [3] addresses T3, human FcγRIIaH extracellular domain, C-terminal His-tag (human, UniProt P12318 34-217).
T3 construct: also called human FcγRIIa (type H); FcgRIIaH; not shown: His-tag added to C-terminus
T3 sequence: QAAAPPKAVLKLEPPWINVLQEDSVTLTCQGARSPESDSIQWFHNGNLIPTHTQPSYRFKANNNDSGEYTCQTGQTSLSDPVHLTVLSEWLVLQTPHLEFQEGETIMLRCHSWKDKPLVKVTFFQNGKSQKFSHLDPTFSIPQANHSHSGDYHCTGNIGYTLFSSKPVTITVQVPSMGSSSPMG
Put plainly: SPR (BIACORE), antibody captured, FcγR analyte. The procedure:
as §1

The target of experiment [4] is T4, cynomolgus monkey FcγRIIIaS extracellular domain, C-terminal His-tag (cynomolgus monkey, UniProt A3RFZ7 21-206 (rhesus entry)).
T4 construct: also called cyno FcγRIIIaS; cynoFcγRIIIaS; not shown: His-tag added to C-terminus
T4 sequence (A3RFZ7 21-206): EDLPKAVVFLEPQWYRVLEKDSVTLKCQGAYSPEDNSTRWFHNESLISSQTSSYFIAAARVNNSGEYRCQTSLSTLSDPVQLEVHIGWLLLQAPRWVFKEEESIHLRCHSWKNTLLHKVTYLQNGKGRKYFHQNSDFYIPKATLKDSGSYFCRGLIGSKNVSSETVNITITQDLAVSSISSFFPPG
Kind of experiment: SPR (BIACORE), antibody captured, FcγR analyte. How it is done: as §1

In experiment [5] the target is T5, cynomolgus monkey FcγRIIa3 extracellular domain, C-terminal His-tag (cynomolgus monkey).
T5 construct: also called cyno FcγRIIa3; cynoFcgRIIa3; not shown: His-tag added to C-terminus
T5 chain: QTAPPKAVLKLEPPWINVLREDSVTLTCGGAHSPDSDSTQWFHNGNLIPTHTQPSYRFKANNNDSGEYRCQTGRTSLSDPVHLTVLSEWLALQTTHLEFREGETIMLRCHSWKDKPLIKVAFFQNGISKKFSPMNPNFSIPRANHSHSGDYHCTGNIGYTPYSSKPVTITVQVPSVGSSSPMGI
Kind of experiment: SPR (BIACORE), antibody captured, FcγR analyte. How it is done:
as §1

Experiment [6] deals with T6, human FcγRIIb extracellular domain, C-terminal His-tag (human, UniProt P31994 43-217).
T6 construct: also called humanFcgRIIb; not shown: His-tag added to C-terminus
T6 sequence: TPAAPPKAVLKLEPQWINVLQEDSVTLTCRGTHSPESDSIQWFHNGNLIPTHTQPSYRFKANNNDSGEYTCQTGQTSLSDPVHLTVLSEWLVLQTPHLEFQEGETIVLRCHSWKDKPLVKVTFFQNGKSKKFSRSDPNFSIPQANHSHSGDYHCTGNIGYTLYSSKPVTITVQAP
Put plainly: SPR (BIACORE), antibody captured, FcγR analyte. The procedure: as §1

The target of experiment [7] is T7, human FcγRIIaR extracellular domain, C-terminal His-tag (human, UniProt P12318 34-217).
T7 construct: also called human FcγRIIa (type R); FcgRIIaR; not shown: His-tag added to C-terminus
T7 chain: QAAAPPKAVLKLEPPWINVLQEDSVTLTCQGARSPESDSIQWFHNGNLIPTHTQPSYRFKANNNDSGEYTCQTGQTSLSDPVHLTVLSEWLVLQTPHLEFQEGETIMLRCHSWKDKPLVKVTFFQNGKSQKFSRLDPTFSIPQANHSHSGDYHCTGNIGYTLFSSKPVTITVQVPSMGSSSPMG
Kind of experiment: SPR (BIACORE), antibody captured, FcγR analyte. The procedure: as §1

The target in experiment [8] is T8, cynomolgus monkey FcγRIIa1 extracellular domain, C-terminal His-tag (cynomolgus monkey).
T8 construct: also called cyno FcγRIIa1; cynoFcgRIIa1; not shown: His-tag added to C-terminus
T8 chain: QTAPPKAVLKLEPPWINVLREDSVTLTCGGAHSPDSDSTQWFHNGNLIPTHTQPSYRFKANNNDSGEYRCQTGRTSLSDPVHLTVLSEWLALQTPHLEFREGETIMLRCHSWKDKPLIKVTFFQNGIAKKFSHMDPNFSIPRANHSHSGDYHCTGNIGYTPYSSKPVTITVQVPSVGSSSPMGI
Put plainly: SPR (BIACORE), antibody captured, FcγR analyte. The procedure:
as §1

For experiment [9], the target named is T9, human FcγRIIIaV extracellular domain, C-terminal His-tag (human, UniProt P08637 17-208).
T9 construct: also called FcgRIIIaV; not shown: His-tag added to C-terminus
T9 sequence (P08637 17-208 F176V): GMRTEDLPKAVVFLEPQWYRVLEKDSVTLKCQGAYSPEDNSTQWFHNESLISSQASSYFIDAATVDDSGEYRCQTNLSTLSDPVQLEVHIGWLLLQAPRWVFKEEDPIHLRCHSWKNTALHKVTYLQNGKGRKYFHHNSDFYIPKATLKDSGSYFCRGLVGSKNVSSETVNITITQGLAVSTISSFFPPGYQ
Kind of experiment: SPR (BIACORE), antibody captured, FcγR analyte. How it is done: as §1

Experiment [10] addresses T1, cynomolgus monkey FcγRIIb extracellular …. Kind of experiment: SPR (BIACORE); KD of parent SG1 / KD of variant.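 Note: relative to parent M103205H795-SG1 carrying the SG1 human heavy chain constant region.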 The procedure: as §1
Experiment [11] deals with T2, cynomolgus monkey FcγRIIa2 …. Put plainly: SPR (BIACORE); KD of parent SG1 / KD of variant.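 Note: relative to parent M103205H795-SG1 carrying the SG1 human heavy chain constant region.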 How it is done:
as §1

Experiment [12] addresses T3, human FcγRIIaH extracellular domain, …. Kind of experiment: SPR (BIACORE); KD of parent SG1 / KD of variant.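 Note: relative to parent M103205H795-SG1 carrying the SG1 human heavy chain constant region.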 How it is done:
as §1

For experiment [13], the target named is T4, cynomolgus monkey FcγRIIIaS …. Put plainly: SPR (BIACORE); KD of parent SG1 / KD of variant.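 Note: relative to parent M103205H795-SG1 carrying the SG1 human heavy chain constant region.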 The procedure: as §1
The target in experiment [14] is T5, cynomolgus monkey FcγRIIa3 …. Put plainly: SPR (BIACORE); KD of parent SG1 / KD of variant. How it is done:
as §1

For experiment [15], the target named is T6, human FcγRIIb extracellular domain, …. Put plainly: SPR (BIACORE); KD of parent SG1 / KD of variant. The procedure: as §1
For experiment [16], the target named is T7, human FcγRIIaR extracellular domain, …. Kind of experiment: SPR (BIACORE); KD of parent SG1 / KD of variant. The procedure: as §1
Experiment [17] addresses T8, cynomolgus monkey FcγRIIa1 …. Put plainly: SPR (BIACORE); KD of parent SG1 / KD of variant. How it is done: as §1
The target of experiment [18] is T9, human FcγRIIIaV extracellular domain, …. Kind of experiment: SPR (BIACORE); KD of parent SG1 / KD of variant. The procedure: as §1

B1: M103205H795-SG1034 / M103202L889-SK1 (antibody, human IgG1, kappa)
heavy: QVTLKESGPVLVKPTETLTLTCTVSGIDLSHDDISWVRQAPGKGLEWVGIISYAGSTYYASWAKGRLTISKDTSKNQVVLTMTNMDPVDTATYYCARGVPAYSHGGDLWGQGTLVTVSSASTKGPSVFPLAPSSKSTSGGTAALGCLVKDYFPEPVTVSWNSGALTSGVHTFPAVLQSSGLYSLSSVVTVPSSSLGTQTYICNVNHKPSNTKVDKKVEPKSCDKTHTCPPCPAPELLTGPSVFLFPPKPKDTLMISRTPEVTCVVVDVSDEDPEVKFNWYVDGVEVHNAKTKPREEQYNSTYRVVSVLTVLHRDWLNGKEYKCKVSNKALPKPIEKTISKAKGQPREPQVYTLPPSREEMTKNQVSLTCLVKGFYPSDIAVEWESNGQPENNYKTTPPVLDSDGSFFLYSKLTVKKSRWQQGNVFSCSVMHEALHAHYTQKSLSLSP
light: DIVMTQSPATLSLSPGERATLSCTSSQSVYHANWLSWFQQKPGQPPKLLIYWASTLAYGVPSRFSGSGSGTDFTLTISSLQPEDAATYYCAGGYGGGRYAFGQGTKVEIKRTVAAPSVFIFPPSDEQLKSGTASVVCLLNNFYPREAKVQWKVDNALQSGNSQESVTEQDSKDSTYSLSSTLTLSKADYEKHKVYACEVTHQGLSSPVTKSFNRGEC
notes: CH with G236T/H268D/Q311R/A330K/D413K/N434A against SG1 (EU numbering); also called MS1032LO06-SG1034
By Kd is commonly meant the equilibrium constant for the complex coming apart. For B1, the Kd in experiment [1] came out at 880 nM; in experiment [2], 2700 nM; in experiment [3], 810 nM; in [4], 2200 nM; in experiment [5], 4200 nM; in [6], 2600 nM. Also, the Kd in experiment [7] was determined as 250 nM; in [8] it was 8100 nM; in experiment [9], 7100 nM. Moreover, the “KD fold (SG1 = 1)” value in experiment [10] amounted to 2.2 fold; in [11] it was 1.7 fold; in [12] it was 2.9 fold; in [13] it was 0.15 fold; in experiment [14], 2 fold; in experiment [15], 1.8 fold. Besides, the entries for the “KD fold (SG1 = 1)” value in experiment [16], in experiment [17] and in experiment [18] were 4.1 fold, 1.5 fold and 0.09 fold, respectively.

B2: MS_M103240H795-SG1/M103202L1045-SK1 (antibody, human IgG1, kappa)
heavy: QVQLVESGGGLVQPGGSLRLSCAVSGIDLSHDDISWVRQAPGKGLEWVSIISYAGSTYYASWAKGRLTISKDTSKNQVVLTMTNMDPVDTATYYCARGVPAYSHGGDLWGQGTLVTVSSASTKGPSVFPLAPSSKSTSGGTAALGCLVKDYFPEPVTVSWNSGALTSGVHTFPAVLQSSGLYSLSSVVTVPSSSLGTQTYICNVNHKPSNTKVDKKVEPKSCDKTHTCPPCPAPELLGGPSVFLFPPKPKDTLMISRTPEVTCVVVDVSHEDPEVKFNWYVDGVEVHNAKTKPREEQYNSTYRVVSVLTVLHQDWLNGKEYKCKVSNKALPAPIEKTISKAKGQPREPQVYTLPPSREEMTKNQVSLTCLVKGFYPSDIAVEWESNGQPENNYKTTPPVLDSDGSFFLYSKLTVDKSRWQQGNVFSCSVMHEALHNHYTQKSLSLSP
light: DIVMTQSPATLSLSPGERATLSCTTSQSVYHENWLSWFQQKPGQPPKLLIYWASTLAYGVPSRFSGSGSGTDFTLTISSLQPEDAATYYCAGGYGGGRYAFGQGTKVEIKRTVAAPSVFIFPPSDEQLKSGTASVVCLLNNFYPREAKVQWKVDNALQSGNSQESVTEQDSKDSTYSLSSTLTLSKADYEKHKVYACEVTHQGLSSPVTKSFNRGEC
notes: Parent of the MS1032LO19 Fc variants; also called MS1032LO19-SG1; MS103240H795-SG1
For the molecule B2, the Kd in experiment [1] turned out to be 1700 nM; in experiment [2], 4100 nM; in experiment [3], 970 nM; in experiment [4] it was 260 nM; in experiment [5] it was 6600 nM; in [6] it was 3800 nM. The results for the Kd in [7], in [8] and in experiment [9] were 960 nM, 8800 nM and 580 nM, respectively. Also, the “KD fold (SG1 = 1)” value in experiment [10], in [11], in experiment [12], in [13], in experiment [14] and in experiment [15] was 1 fold each time. The “KD fold (SG1 = 1)” value in [16], in experiment [17] and in experiment [18] was 1 fold throughout.
